Measurements as given in patent US20190282673A1, “STAPHTAME ACTIVITY ON BIOFILMS” (priority 2016, published 2019).

What was measured:
[1] = system: S. aureus small colony variants and wild type; assay: CFU drop assay on small colony variants; assay type: cell-based, Staphylococcus aureus
Protocol: Bacterial cultures were grown in LB medium at 37° C. until OD600 reached 1.0 and then diluted in LB to obtain 10^7 CFU. 100 μL of cells (10^7 CFU) in LB were treated with 100 μL of P128 (in saline) and incubated at 37° C. for 1 h, 200 rpm, cell controls without proteins were maintained. Following incubation, the volume was made up to 1 mL with LB broth, serially log diluted in LB broth and plated on LB agar. Incubated at 37° C. for 16-18 h to enumerate residual CFU and determine cell killing.

[2] = system: S. epidermidis stationary phase cells; assay: P128 activity on stationary phase cells (CFU); assay type: cell-based, Staphylococcus epidermidis; details: 10 μg/mL P128, 2 h
Source text: (§1) Most in vitro studies examining the activity of antibiotics have been performed on rapidly dividing planktonic bacterial cultures supplemented with rich growth media. However, in infections, bacteria seldom encounter optimal conditions that allow logarithmic growth. It is likely that stationary-phase or non dividing bacteria are common in many persistent Staphylococcus infections such as endocarditis and osteomyelitis and in biofilm-associated infections (e.g., on catheters, grafts, and foreign bodies). Therefore, activity of P128 was determined on stationary phase cells of three S. aureus strains, three S. epidermidis, and two each of S. lugdunensis and S. haemolyticus strains. Briefly, the test cultures were grown overnight in LB (˜10^9 cells), centrifuged, pellet was washed and resuspended in saline. Optical density (OD600) was adjusted to 0.2 (˜10^8 CFU/mL). 100 μL of these cells were treated with 10 μg/mL P128 (in saline) and incubated at 37° C. for 2 h, 200 rpm, cell controls without proteins were maintained. Following incubation, the volume was made up to 1 mL with saline, serially log diluted in saline and plated on LB agar. Incubated at 37° C. for 18 h to enumerate residual CFU to determine cell killing.

MRSA MW2 = assay: Rat model of infective endocarditis; assay type: in vivo, Wistar albino rats; details: described in present tense, no data
Source text: A rat model of infective endocarditis is used. Fernandez, et al. (2012). Synergistic activity of ceftobiprole and vancomycin in a rat model of infective endocarditis caused by methicillin-resistant and glycopeptide-intermediate Staphylococcus aureus. Antimicrob Agents Chemother. 56(3):1476-84. Female Wistar albino rats are operated under ketamine and xylazine anaesthesia Right carotid artery is cannulated and polyethylene catheter is placed near the […]. Two days later, animals are challenged with MRSA MW2 through tail vein. Twenty four hours post-challenge, animals are treated with appropriate doses of P128 (IV bolus or infusion) or standard of care antibiotics (e.g., vancomycin, daptomycin, linezolid, oxacillin, etc.) or both. Animals are euthanized at appropriate time after the last dosing, vegetations are collected and bacterial load is determined.

[3] = system: S. lugdunensis stationary phase cells; assay: P128 activity on stationary phase cells (CFU); assay type: cell-based; details: 10 μg/mL P128, 2 h
Source text: as §1

[4] = system: S. haemolyticus stationary phase cells; assay: P128 activity on stationary phase cells (CFU); assay type: cell-based; details: 10 μg/mL P128, 2 h
Source text: as §1

S. aureus BK1 biofilms = assay: Scanning electron microscopy of treated biofilms in microtitre plates; assay type: cell-based, Staphylococcus aureus; details: Gentamycin 50 μg/mL; P128 12.5 μg/mL (lowest concentration tested)
Protocol: MRSA strain BK1 or MW2 was used for studying biofilm eradication activity of P128 by SEM. For this, biofilms formed in microtitre plates or on the surface of catheters were treated with increasing concentrations of P128 or antibiotics and subjected to SEM. S. aureus BK1 or MW2 was revived on blood agar plates and the culture was grown overnight in TSB supplemented with 20% glucose. The overnight-grown culture was diluted 1:50 in TSB with 2% glucose to achieve OD600=˜0.1. 200 μL of the diluted culture was aliquoted into each well of the 96 well plate and incubated at 37° C. under static conditions for 18 h. After incubation the contents were aspirated, washed twice with 200 μL of PBS, and 100 μL of media+100 μL of drug were added to each well and incubated again at 37° C. for 18 h. The contents were aspirated, washed with 200 μL of PBS and allowed to dry at 37° C. for 15 min. The individual wells were cut out and biofilms visualized by SEM.

S. lugdunensis = assay: P128 MIC in CAMHB and serum; assay type: cell-based
[5] = system: S. aureus stationary phase cells; assay: P128 activity on stationary phase cells (CFU); assay type: cell-based, Staphylococcus aureus; details: for CFU/mL, P128 treated: 10 μg/mL P128, 2 h
Source text: as §1

S. aureus = assay: P128 MIC in CAMHB and serum; assay type: cell-based, Staphylococcus aureus
[6] = system: S. aureus small colony variants (hemB and menD mutants); assay: Lawn inhibition assay on small colony variants; assay type: cell-based, Staphylococcus aureus
Protocol: Two S. aureus small colony variants viz., hemB mutant and menD mutants were characterized for SCV phenotype and auxotrophy for hemin and menadione. Both the isolates were revived on LB agar with and without Erythromycin (5 μg/mL) and Blood agar medium and incubated at 37° C. for 48 hr.
P128 was tested on both the mutants by lawn inhibition assay and the SCV's were susceptible to P128.

S. haemolyticus = assay: P128 MIC in CAMHB and serum; assay type: cell-based

B1: P128: anti-staphylococcal chimeric protein: phage tail associated muralytic enzyme (TAME) cell wall-degrading region plus staphylococcus-specific binding region; SEQ ID NO: 1 (protein)
chain: MSLDSLKKYNGKLPKHDPSFVQPGNRHYKYQCTWYAYNRRGQLGIPVPLWGDAADWIGGAKGAGYGVGRTPKQGACVIWQRGVQGGSPQYGHVAFVEKVLDGGKKIFISEHNYATPNGYGTRTIDMSSAIGKNAQFIYDKKLETPNTGWKTNKYGTLYKSESASFTPNTDIITRTTGPFRSMPQSGVLKAGQTIHYDEVMKQDGHVWVGYTGNSGQRIYLPVRTWNKSTNTLGVLWGTIK
modifications: P128 chimera
[1]
  Reduction in CFU of SCV strains: more than 4 log
[1]; S. aureus USA 300 (wild type), 1 h
  CFU/mL, P128 treated: 4.5 × 10^2 CFU/mL
[1]; hemB small colony mutant NR48387, 1 h
  CFU/mL, P128 treated: 3.0 × 10^1 CFU/mL
[1]; menD mutant small colony mutant, 1 h
  CFU/mL, P128 treated: 1.2 × 10^3 CFU/mL
[2]; S. epidermidis B9467 stationary phase
  CFU/mL, P128 treated: 3.7 × 10^2 CFU/mL
[2]; S. epidermidis B9470 stationary phase
  CFU/mL, P128 treated: 1.5 × 10^2 CFU/mL
[2]; S. epidermidis B9472 stationary phase
  CFU/mL, P128 treated: 7 × 10^1 CFU/mL
MRSA MW2
  CFU reduction in vegetations: Significantly higher CFU reduction
[3]; S. lugdunensis B9474 stationary phase
  CFU/mL, P128 treated: 4.9 × 10^2 CFU/mL
[3]; S. lugdunensis B9475 stationary phase
  CFU/mL, P128 treated: 2.7 × 10^4 CFU/mL
[4]; S. haemolyticus B9478 stationary phase
  CFU/mL, P128 treated: 1.1 × 10^3 CFU/mL
[4]; S. haemolyticus B9479 stationary phase
  CFU/mL, P128 treated: 6 × 10^2 CFU/mL
S. aureus BK1 biofilms
  Effect on biofilm by SEM: destroyed the biofilm structure and lysed the bacterial cells completely
S. lugdunensis; S. lugdunensis B9476
  Fold reduction in serum MIC: 8 fold
  MIC of P128 in CAMHB: 4 μg/ml and (0.14) μM
  MIC of P128 in Serum: 0.5 μg/ml and (0.017) μM
S. lugdunensis; S. lugdunensis B9510
  Fold reduction in serum MIC: 32 fold
  MIC of P128 in CAMHB: 16 μg/ml and (0.58) μM
  MIC of P128 in Serum: 0.5 μg/ml and (0.017) μM
S. lugdunensis; S. lugdunensis, fetal calf serum
  24 h P128 MIC for serum time-kill: 0.50 µg/mL
[5]; S. aureus B9377 stationary phase
  CFU/mL, P128 treated: 3 × 10^2 CFU/mL
[5]; S. aureus BK18 stationary phase
  CFU/mL, P128 treated: 1 × 10^1 CFU/mL
[5]; S. aureus BK31 stationary phase
  CFU/mL, P128 treated: 3.5 × 10^1 CFU/mL
[5]; S. aureus, S. epidermidis, S. lugdunensis and S. haemolyticus
  Drop in CFU, stationary cells: Three to five log drop in CFU
S. aureus; S. aureus MW2
  Fold reduction in serum MIC: 64 fold
  MIC of P128 in CAMHB: 8 μg/ml and (0.29) μM
  MIC of P128 in Serum: 0.12 μg/ml and (0.004) μM
S. aureus; S. aureus USA 300
  Fold reduction in serum MIC: 64 fold
  MIC of P128 in CAMHB: 8 μg/ml and (0.29) μM
  MIC of P128 in Serum: 0.12 μg/ml and (0.004) μM
[6]
  Lawn inhibition: susceptible
S. haemolyticus; S. haemolyticus B9478
  Fold reduction in serum MIC: 16 fold
  MIC of P128 in CAMHB: 128 μg/ml and (4.64) μM
  MIC of P128 in Serum: 8 μg/ml and (0.29) μM
S. haemolyticus; S. haemolyticus B9511
  Fold reduction in serum MIC: 32 fold
  MIC of P128 in CAMHB: 8 μg/ml and (0.29) μM
  MIC of P128 in Serum: 0.25 μg/ml and (0.008) μM
S. haemolyticus; S. haemolyticus, fetal calf serum
  24 h P128 MIC for serum time-kill: 0.25 µg/mL
